Test results: the DeepSol protein solubility set

Assay: soluble on expression in E. coli; label from the status in PepcDB or PDB records

Soluble on expression in E. coli, not soluble:
MGSDKIHHHHHHMAIIETRGIWLTTTDSKVLRSKQRIAEAMDLLAETGFNVVFPVVWNKAVTLYPSQTMQETFGVEIDPMSVGRDPLEEVVVEARRVGLKVIPWFEYGFASSYNLNGGVLLQKKPEWAARDFNGNLLNKNGFEWLNALDSQVQEFFLNLVLEVVKNYDVDGVQGDDRLPAFPCEGGYDEGTVSRYRQEYDRNPPQNPKDRQWLQWRADILTDFLARLYGEVKAVNPNLLVAIAPNIHDWAFQEYLQDSPTWLKRGIVDMIQPQIYRRDFGSYCAIADKLVSQQFTDATLPRLAPGILMKLGSYCISPEYLVQAIEYNRQLGIQGEVFFFYEGLRENNNTLAKVLRNGPYAKSASFPTLSDLSVSGVSNKKTSSTWQRLLKKIF
MGSDKIHHHHHHMAILNISELEQVEKFRQLQLTLRDRWKTIESFDNSEADILIIPSLSIDQRELQKIEGCEHYEERLLFSLIRLQNPRTRLIYVTSVPLHPSIIDYYLQLLPGIPFSHARNRLLLLSTYDSSLKPLSQKILERPRLLERIHQSLRLDKSFMICYNSSHWEGELSLKLGVPLYAAAPDLQIWGTKSGSRQIFKGSGVPHPDGSEKIWNHTDLAEATSDLWERQPTLKRVVVKLNEGISGEGNALLDLRPIENLAPGIGTHAQRVAAISDRFSTMRFQAKLETWDNFSGRIPELGAIAEAFVEGEIKRSPSVQGRITPTGEVEILSTHDQILGGPDGQIYLGCRFPADESYRLQLQQLGLQVGRTLAEKGTLERFGVDFIAVDKGNGEWDIQAIEINLRKGGTTHPFMTLKLLTNGRYDLSTGLFYSQQGRPKYYIATDNLQKERYQGLLPNDLMDIIAHHRLHFDSGTETGTVFHLMGCLSQFGKLGLTSIGDSPQQAQDIYNKVVKVLDEETRSENRDFSAFSDYSFPVAWDEYR
MGSDKIHHHHHHMAIRSSVLALCVATLLTGCQNLNTNTLMQSGAQAFQAATLSDAQVKALSDQSCEQMDKEAKIAPADSKYTQRLNKIADALGHDINGTPANYKVYLEKDVNAWAMANGCIRVYSGLMDMMNDNEVEGVLGHEMGHVALGHTRKAMQVAYAATAARTAIASAGGVAASLSQSQLADLGEKLVNSQFSQSQESQADDYSFDLLKKRGINREGLASSFEKLAKLDASHESSMFDSHPSSEGRAKHIRERITAEK
MGSDKIHHHHHHMAIRTCFCTGVLPVTMDDLTSGYNIAEILTLEPEFLSMLGFTYKEAEVYLRYVLDTYTEGQDRFDDVWQLIVNNYDGYRFLPEAEPLFNSTILTYFFKKFAVRKGGIPSELVDENLRTDIGWIRHLTLSLENAKEMQDALVIDDELSYNVSDLSSKFNKRKFFDKSIYPVSLFYLGMTTLRSNYRMVLPNLTMRSIYMDYYNEMNHIEGNAQRYVPTYERFTEERRFEPLVQNYFEQYLGQFPAQVFDKINENFIRCSFFELCSRYLSSCYTFAIEQNNSAGRSDFEMTGIPGTDYYKDDRLAEFKYFKAKEAERMLALSDPRPEDVAQVLAYAKDTKVKFPHYHVRSYIVYICANKGWKCWEVTP
MGSDKIHHHHHHMAKDIEISASESKFILEALRQNYRLDGRSFDQFRDVEITFGKEFGDVSVKMGNTKVHCRISCQIAQPYEDRPFEGLFVISTEISPMAGSQFENGNITGEDEVLCSRIIEKSVRRSGALDVEGLCIVAGSKCWAVRADVHFLDCDGGFIDASCIAVMAGLMHFKKPDITVHGEQIIVHPVNEREPVPLGILHIPICVTFSFFNPQDTEENIKGETNSEISIIDATLKEELLRDGVLTVTLNKNREVVQVSKAGGLPMDALTLMKCCHEAYSIIEKITDQILQLLKEDSEKRNKYAAMLTSENAREI
MGSDKIHHHHHHMAKILVVTDGAYGYRIKGTINSFGKKNKFIGIYKINKPDDLIVDDIEFPDELLEKIKEADILLLYTQHPDNTYYLCYEARRLNKDIAIIVATWSGEGEKKELKKFDAICPEEMCLLDENEVGSLIDKYPKLKEFLEEFGTPKVKVYVKDNKVIDVEVLRTSICGSTLFMAKLMKGMEVNDIEEFAKKSAMLIQRYPCVAGKIKIFRGDCRKQKALNIHKEAVLEGIIFI
MGSDKIHHHHHHMAKINLIIAETDGAYLKGLVNYISSNFEDTFRITCFTNREYLEKYISSGRISDILLIKTDMFYEGLMKNSIKSIAILSEGGNMDEFNGLPVVKKYQPGEKLCREILNIYYNNNPEVAPCKEVKKQEGSIITLYSPVGGIGKSTIAIEMAKKLSDSNKKVLYLNLEDLQSTLVFFECSTSKNMSDFLYFIKERDENFKEVLKDIVLKDEESGINYFAPVDSVLDIEDLKVDDVKFMLQKLIEVNMYNYIIIDLSSTFNINYKTIFEMSSKIIVPIGQDKLSSVKLQNFLKQLDNLENFSFIQNKYKDNLETIIPHVLLREKKPIIQKIYYDEALESVSSLIYLKNRASTFLRCIDELIMKLL
MGSDKIHHHHHHMAKLYFNYSTMNAGKSTVLLQASHNYRERGMQTYLMTAAIDGRAGTGRIASRIGIGAEADIFTPRDDVFAMIRDRLGAGPVACVFVDEAQFLSPEQVWQLARVVDDLDVPVLAYGLRVDFQGKLFPGSATLLALADEMREVRTICKCGRKATMVIRQDASGRAITEGAQVQIGGNETYVSLCRKHWREATGDPGAKGH
MGSDKIHHHHHHMAKLYFYYSTMNAGKSTTLLQSDYNYRERNMNTLVYTAAIDDRFGKGKVSSRIGIHRQANLFHKDTDLFTEIALHIKQQKLHCILIDEAQFLTKAQVYQLSNVVDELNIPVLCYGLRTDFQAELFEGSKYLLAWADQLEELKTICYCGRKANFVLRLNEQGKAVKDGEQIQIGGNDSYMSVCRKHYKEILYSSNE
MGSDKIHHHHHHMAKNKALFECQACGNQQSKWLGKCPDCGAWDSFVELKAEQIKVLKELAQVSMKTSEAVCIEDVELEHFTRYSTDDNELDLVLGGGLVEGSLVLIGGSPGVGKSTLLLKIASNLAKQGKKVLYVSGEESKAQIKLRADRLEANTPNLFLLTELCLENILEELHKKDYSILIVDSIQTLYSNKITSAAGSITQVREITFELMRVSKAYNISTFIIGHITKEGAIAGPRVLEHMVDVVLYFEGDATKEIRLLRGFKNRFGGTNEVGIFEMTAKGLISAKDLANRFFTRGKAISGSALGVVMEGSRALVLEVQALVCESSYPKRSATGYEKNRLDMLLALLERKLEIPLGHYDVFVNISGGVKVSETAADLAVVAAIISSFKNRPLSKDSIFIGELSLNGEIREVFSLDTRLKEAKMQKFKNAIVPSKPLEDIGLKCFVAKELSQVLEWM
MGSDKIHHHHHHMAKNKQEDIFDAAMQLFAERGYDGTTIPMIAEKAKVGAGTIYRYFENKEALVNSLFSKSMLQLSEMIKTDFPVEANIREQFSHTYNRLFEFARNNVDAFLFTNSHCDSYFLDEQSKKIFDDFIGFFMNIIEDGIVKGLLRPLPPVALIIIVYQPLEKLIKVIATGQLEYSKELVKELEESSWNAIRII
MGSDKIHHHHHHMAKSKIDELMSVGIDIGKDTFHVVAFDPDGHLVMRKRIKRLALVATFEKLPRCVVGMEACLSAHFVSRTLRKMGFEPGIIPAIYVKPFIKGQKNDYNYAEAISEAALRPNLPVVPEKSQEQLDLQALHRVRSRLVSRRTASINQIRAFLIEQGITVRKGLRVLKNSFGKILDERKDEISPRMRTILIGLYGDWLWLDDRIDTVSKEIEQISRTEENCINVMTVPGIGPMISTAMVAAIGTGEAFGRGRDFAAWVGLVPRQYSTGGRTILGRITKRGSRYLRMLFVQAAKVILMRTNRWPDFSFGDWLIKAAERMNRNKLAVALANKLARMA
MGSDKIHHHHHHMAKYRIMTFDGGGTLGALSLQLLNRLARQNPKLISRTHVFSGNSIGSFTALALASGRSPRETLQYFEDEILPAFSISRPGGPVFNQQLPYSGFIKAVRNFFPADLQLIDLRKRIVVPSFKLYSQKLDRWTPVLFHNFPGSPYLNEKVSDVILRSSGAPATQRAYQNYVDGYVVATNPSTASIAFAVGKANVPLDQIAVLSIGTGEAPTRLRRDTRGWGMVSADNIRPENLKNLPPNWGVLLDRSPNEPLLPFLQMIAGGNGYYESMVSANLLGDRFFRLDPRIPNFSKTDPAVVPAVIEIANKTNLQPANQFIEKNWGSK
